The target in the assay is VEGF:sFlk-1 complex (human; mouse) (UniProt P15692). The assay can be described thus: capture ELISA: biotinylated sFlk-1 complexed with VEGF titrated onto wells coated with irrelevant IgM, concentration giving 50% maximal binding; extrapolated value.

The values below come from patent US20030175276A1.

In general, EC50 refers to the concentration at which the effect is half-maximal.

Chain of VEGF:sFlk-1 complex (human; mouse) (P15692 other isoform, or with tags, fused parts or gaps limits assumed, chain 1 of 2): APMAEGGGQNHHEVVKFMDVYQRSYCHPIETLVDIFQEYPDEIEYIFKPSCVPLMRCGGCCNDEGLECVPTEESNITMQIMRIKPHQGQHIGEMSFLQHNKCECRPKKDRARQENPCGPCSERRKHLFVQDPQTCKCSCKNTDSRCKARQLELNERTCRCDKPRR
Chain of VEGF:sFlk-1 complex (human; mouse) (P35918 20-762 limits assumed, chain 2 of 2, further chain): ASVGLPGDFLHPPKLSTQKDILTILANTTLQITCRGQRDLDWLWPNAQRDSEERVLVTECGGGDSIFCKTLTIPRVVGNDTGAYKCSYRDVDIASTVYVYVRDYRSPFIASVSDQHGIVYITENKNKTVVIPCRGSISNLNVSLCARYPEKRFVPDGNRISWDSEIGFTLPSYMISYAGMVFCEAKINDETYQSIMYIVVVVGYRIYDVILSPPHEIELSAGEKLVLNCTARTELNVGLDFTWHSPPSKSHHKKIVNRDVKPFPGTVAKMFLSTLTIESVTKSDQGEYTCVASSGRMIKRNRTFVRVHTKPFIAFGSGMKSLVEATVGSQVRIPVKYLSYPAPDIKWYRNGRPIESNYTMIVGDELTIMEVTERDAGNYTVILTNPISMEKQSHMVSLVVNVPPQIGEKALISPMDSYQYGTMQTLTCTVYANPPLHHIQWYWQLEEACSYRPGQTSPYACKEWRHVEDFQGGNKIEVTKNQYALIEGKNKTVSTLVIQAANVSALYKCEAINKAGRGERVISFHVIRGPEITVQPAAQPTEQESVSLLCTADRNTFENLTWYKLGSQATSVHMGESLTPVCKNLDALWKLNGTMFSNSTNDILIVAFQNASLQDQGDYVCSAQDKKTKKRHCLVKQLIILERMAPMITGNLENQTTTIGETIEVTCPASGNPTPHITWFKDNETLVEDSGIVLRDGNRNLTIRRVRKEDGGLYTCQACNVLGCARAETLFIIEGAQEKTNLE

Consider “irrelevant IgM (negative control of Table 2) (antibody)”, for which the EC50 was 600 nM.
